Consider 10 proteins from patent publication US11491212.

The term kcat/KM denotes the second-order rate constant that governs catalysis at low substrate concentration.

This data set has as its target Factor X (FX), P00742.

Factor X (FX), P00742, sequence (P00742 whole entry, looked up): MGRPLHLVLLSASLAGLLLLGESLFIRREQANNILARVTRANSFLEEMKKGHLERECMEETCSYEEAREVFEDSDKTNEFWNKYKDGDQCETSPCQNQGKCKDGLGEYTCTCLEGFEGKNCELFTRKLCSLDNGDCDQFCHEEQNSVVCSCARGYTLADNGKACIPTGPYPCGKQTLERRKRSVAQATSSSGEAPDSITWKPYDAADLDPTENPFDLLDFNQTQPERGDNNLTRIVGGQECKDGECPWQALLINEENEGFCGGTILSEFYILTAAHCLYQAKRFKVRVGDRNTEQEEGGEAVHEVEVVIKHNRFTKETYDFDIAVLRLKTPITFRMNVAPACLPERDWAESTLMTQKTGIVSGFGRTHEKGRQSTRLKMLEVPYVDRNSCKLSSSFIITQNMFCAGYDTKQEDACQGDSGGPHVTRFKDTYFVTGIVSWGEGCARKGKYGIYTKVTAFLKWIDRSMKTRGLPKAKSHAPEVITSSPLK

B1: FIXa-R318Y/T343R/E410N (protein)
chain 1: not shown
chain 2: not shown
Consider B1, for which the KM (nM), FX activation by FIXa in the Xase complex (FVIIIa, PC/PS vesicles, Ca2+), indirect fluorogenic assay with Spectrafluor FXa came to 52.3 nM.

B2: FIXa-K228N/K247N/N249S/R318Y/R338E/T343R/R403E (protein)
chain 1: not shown
chain 2: not shown
Take B2: the KM (nM), FX activation by FIXa in the Xase complex (FVIIIa, PC/PS vesicles, Ca2+), indirect fluorogenic assay with Spectrafluor FXa was 44.4 nM.

B3: FIXa-K293A/R338A/R403A (mature FIX numbering) (protein)
chain 1: not shown
chain 2: not shown
In the case of B3, the “% of WT kcat/KM” value came out at 53%.

B4: FIXa-Y155F/R338E/R403E/E410N (mature FIX numbering) (protein)
chain 1: not shown
chain 2: not shown
In the case of B4, the “% of WT kcat/KM” value was 401% and the kcat/KM came out at 1.8e+08 M⁻¹ s⁻¹.

B5: FIXa-K228N/K247N/N249S/R318Y/T343R/R403E/E410N (protein)
chain 1: not shown
chain 2: not shown
With B5, the KM (nM), FX activation by FIXa in the Xase complex (FVIIIa, PC/PS vesicles, Ca2+), indirect fluorogenic assay with Spectrafluor FXa stood at 125 nM.

B6: FIXa-K228N/R318Y/R338E/T343R/R403E/E410N (protein)
chain 1: not shown
chain 2: not shown
On to B6, for which the KM (nM), FX activation by FIXa in the Xase complex (FVIIIa, PC/PS vesicles, Ca2+), indirect fluorogenic assay with Spectrafluor FXa was found to be 40.3 nM.

B7: FIXa-R338E/R403E/E410N (mature FIX numbering) (protein)
chain 1: not shown
chain 2: not shown
In the case of B7, the “% of WT kcat/KM” value is 411%.

B8: FIXa-K293E/R338E/R403E (mature FIX numbering) (protein)
chain 1: not shown
chain 2: not shown
For the protein B8, the “% of WT kcat/KM” value amounted to 36%.

B9: FIXa-K228N/247N/N249S/R318Y/R338E/T343R/E410N (protein)
chain 1: not shown
chain 2: not shown
As for B9, the KM (nM), FX activation by FIXa in the Xase complex (FVIIIa, PC/PS vesicles, Ca2+), indirect fluorogenic assay with Spectrafluor FXa was determined as 38.1 nM.

B10: FIXa-Y155F/R318Y/T343R/E410N (protein)
chain 1: not shown
chain 2: not shown
Turning to B10, the KM (nM), FX activation by FIXa in the Xase complex (FVIIIa, PC/PS vesicles, Ca2+), indirect fluorogenic assay with Spectrafluor FXa turned out to be 40.3 nM.
